Here are results for 43 variants from the supplement of paper PMC12783771.

± gives the standard deviation of the averaged measurements.

The labels stand for the following.
B1: library; numbered along this chain (parent)
chain: MNIQIGELAKRTACPVVTIRFYEQEGLLPPPGRSRGNFRLYGEEHVERLQFIRHCRSLDMPLSDVRTLLSYRKRPDQDCGEVNMLLDEHIRQVESRIGALLELKHHLVELREACSGARPAQSCGILQGLSDCVCDTRGTTAHPSD

Variants of B1 are the subject of data set [1]. The data set can be described thus: sfGFP reporter fluorescence (15 h) (µM FITC); higher = higher leak. Conditions: library round: Round 1; ligand: none. As for the experimental part:
(§1)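 Cell-free biosensing: 1 µL Echo-assembled CFE reactions with linear PbrR variant templates (5 nM) and pPbrR-sfGFP reporter, with 1 µM Pb, 30 µM Zn or no ligand; endpoint sfGFP fluorescence after 15 h at 30 °C calibrated as µM FITC. Round 1 ML-predicted PbrR mutants; 3 biological replicates.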

In data set [2] the parent is B1. The data set can be described thus: sfGFP reporter fluorescence (15 h) (µM FITC); higher = stronger transcriptional activation. Particulars: library round: Round 1. Here is the method:
as §1

Data set [3] covers variants of B1. The data set can be described thus: sfGFP reporter fluorescence (15 h) (µM FITC); higher = higher leak. Conditions: library round: Round 0; ligand: none. Here is the method: (§2)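 Cell-free (BL21 Star DE3 extract, PANOx-SP) biosensing: 1 µL Echo-assembled reactions with linear PbrR variant templates (5 nM) and pPbrR-sfGFP reporter, with 1 µM Pb (lead chloride), 30 µM Zn (zinc acetate) or no ligand; endpoint sfGFP fluorescence after 15 h at 30 °C, calibrated as µM FITC. Round 0 library (alanine scan, site saturation, combinatorial) of PbrR from Cupriavidus metallidurans; 2 biological replicates.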

Variants of B1 are the subject of data set [4]. The data set can be described thus: sfGFP reporter fluorescence (15 h) (µM FITC); higher = stronger transcriptional activation. Conditions: library round: Round 0. Here is the method:
as §2

Turning to D64A I97M, the values for the sfGFP reporter fluorescence in data set [1], in data set [2] (ligand: 1 µM Pb) and in data set [2] (ligand: 30 µM Zn) were 0.0644 ± 0.002, 0.0781 ± 0.0023 and 0.507 ± 0.02, respectively.
In the same order, the values of P61N E94A are 0.0757 ± 0.0021, 0.15 ± 0.0094 and 0.977 ± 0.065.
For the variant L107C G128I D131C, the sfGFP reporter fluorescence in data set [1] is 0.657 ± 0.018; in data set [2] (ligand: 1 µM Pb) it was 1.26 ± 0.22; in data set [2] (ligand: 30 µM Zn), 1.77 ± 0.23.
The corresponding values for L107I P143R are 0.06365 ± 0.00021, 0.0775 ± 0.0077 and 0.473 ± 0.02.
The corresponding values for N83T C134L are 0.0568 ± 0.0011, 0.0739 ± 0.003 and 0.159 ± 0.025.
The corresponding values for N83T C134V are 0.0588 ± 0.0022, 0.0731 ± 0.0054 and 0.168 ± 0.016.
For N83T C134A, the sfGFP reporter fluorescence amounted to 0.0602 ± 0.0013 in data set [1], 0.0716 ± 0.0016 in data set [2] (ligand: 1 µM Pb) and 0.162 ± 0.014 in data set [2] (ligand: 30 µM Zn).
In the same order, the values of N83T C134M are 0.05754 ± 0.00037, 0.0707 ± 0.0046 and 0.19 ± 0.022.
The corresponding values for N83T R111D are 0.0624 ± 0.00076, 0.06 ± 0.0029 and 0.068 ± 0.0024.
For the variant N83T R111A, the sfGFP reporter fluorescence worked out at 0.0564 ± 0.00097 in data set [1], 0.0834 ± 0.0021 in data set [2] (ligand: 1 µM Pb) and 0.341 ± 0.031 in data set [2] (ligand: 30 µM Zn).
In the same order, the values of M60L P61N D64K D131C are 0.194 ± 0.0087, 0.7 ± 0.062 and 1.15 ± 0.26.
In the same order, the values of R111V P143T are 0.0627 ± 0.002, 0.0715 ± 0.0029 and 0.25 ± 0.011.
The corresponding values for N83Y R111L are 0.06133 ± 0.00056, 0.0694 ± 0.0053 and 0.0698 ± 0.0019.
On to N83T E112F, for which the sfGFP reporter fluorescence in data set [1] was determined as 0.0601 ± 0.0026; in data set [2] (ligand: 1 µM Pb), 0.0667 ± 0.0032; in data set [2] (ligand: 30 µM Zn), 0.0853 ± 0.0022.
With N83T E112M, the sfGFP reporter fluorescence in data set [1] was determined as 0.06267 ± 0.00037; in data set [2] (ligand: 1 µM Pb) it was 0.0849 ± 0.0046; in data set [2] (ligand: 30 µM Zn) it was 0.162 ± 0.0094.
In the same order, the values of N83T E112A are 0.0608 ± 0.0013, 0.0855 ± 0.0018 and 0.194 ± 0.022.
With D64K I97A, the sfGFP reporter fluorescence in data set [1] was 0.2087 ± 0.002; in data set [2] (ligand: 1 µM Pb), 0.581 ± 0.17; in data set [2] (ligand: 30 µM Zn) it was 2.21 ± 0.066.
As for D64K I97S, the sfGFP reporter fluorescence in data set [1] was found to be 0.0966 ± 0.0019; in data set [2] (ligand: 1 µM Pb), 0.216 ± 0.016; in data set [2] (ligand: 30 µM Zn) it was 1.09 ± 0.074.
The corresponding values for L107C G128H are 0.132 ± 0.0069, 0.409 ± 0.075 and 1.66 ± 0.14.
The corresponding values for N83V C134S are 0.0579 ± 0.00097, 0.0667 ± 0.0035 and 0.055 ± 0.00064.
Consider P30V K104V, for which the sfGFP reporter fluorescence in data set [1] came to 0.0683 ± 0.002; in data set [2] (ligand: 1 µM Pb), 0.117 ± 0.0083; in data set [2] (ligand: 30 µM Zn), 0.641 ± 0.092.
Take E81Q: the sfGFP reporter fluorescence in data set [1] was found to be 0.0605 ± 0.0017; in data set [2] (ligand: 1 µM Pb), 0.0673 ± 0.0016; in data set [2] (ligand: 30 µM Zn) it was 0.189 ± 0.022.
As for N83T K104V, the sfGFP reporter fluorescence in data set [1] turned out to be 0.0623 ± 0.0026; in data set [2] (ligand: 1 µM Pb) it was 0.113 ± 0.0044; in data set [2] (ligand: 30 µM Zn), 0.249 ± 0.025.
In the same order, the values of K104V R111D are 0.0612 ± 0.0019, 0.0619 ± 0.0015 and 0.0723 ± 0.0033.
The corresponding values for D131L D135S are 0.0691 ± 0.0011, 0.0943 ± 0.002 and 0.588 ± 0.05.
The corresponding values for K104A G128M are 0.0657 ± 0.0021, 0.109 ± 0.01 and 0.897 ± 0.013.
With G36F M60L P61N, the sfGFP reporter fluorescence in data set [1] worked out at 0.0662 ± 0.0022; in data set [2] (ligand: 1 µM Pb) it was 0.0735 ± 0.0027; in data set [2] (ligand: 30 µM Zn) it was 0.143 ± 0.007.
The corresponding values for G128I D135A are 0.0699 ± 0.0036, 0.12 ± 0.0083 and 0.64 ± 0.032.
In the same order, the values of E109A D131C are 0.0641 ± 0.0019, 0.0804 ± 0.0035 and 0.462 ± 0.0051.
In the same order, the values of N83T I97N are 0.06206 ± 0.00056, 0.064 ± 0.0017 and 0.0862 ± 0.0011.
With N83T I97H, the sfGFP reporter fluorescence in data set [1] is 0.0607 ± 0.0023; in data set [2] (ligand: 1 µM Pb), 0.0635 ± 0.00085; in data set [2] (ligand: 30 µM Zn), 0.0778 ± 0.0044.
In the same order, the values of N83T I97T are 0.06157 ± 0.00037, 0.0658 ± 0.0032 and 0.102 ± 0.0039.
For unchanged, the sfGFP reporter fluorescence in data set [1] worked out at 0.0626 ± 0.0021; in data set [3] it was 0.0588 ± 0.0029; in data set [4] (ligand: 1 µM Pb), 0.0826 ± 0.03; in data set [4] (ligand: 30 µM Zn), 0.722 ± 0.087; in data set [2] (ligand: 1 µM Pb), 0.0729 ± 0.0052; in data set [2] (ligand: 30 µM Zn), 0.487 ± 0.22.
For D131C P143A, the sfGFP reporter fluorescence in data set [1] worked out at 0.0583 ± 0.0013; in data set [2] (ligand: 1 µM Pb) it was 0.0696 ± 0.0017; in data set [2] (ligand: 30 µM Zn), 0.141 ± 0.011.
In the case of R111I G128I, the sfGFP reporter fluorescence in data set [1] was 0.0666 ± 0.0015; in data set [2] (ligand: 1 µM Pb) it was 0.127 ± 0.0043; in data set [2] (ligand: 30 µM Zn), 0.695 ± 0.036.
The corresponding values for N83S D135A are 0.0628 ± 0.0014, 0.0731 ± 0.0064 and 0.219 ± 0.026.
In the same order, the values of P61N R96A are 0.0665 ± 0.00092, 0.0876 ± 0.0059 and 0.238 ± 0.024.
The corresponding values for D64T E112I D135A are 0.08637 ± 0.00056, 0.197 ± 0.029 and 1.56 ± 0.079.
D64L K104V L107R: the sfGFP reporter fluorescence in data set [1] stood at 0.0627 ± 0.0017; in data set [2] (ligand: 1 µM Pb), 0.0614 ± 0.0042; in data set [2] (ligand: 30 µM Zn), 0.0593 ± 0.0044.
The corresponding values for H142C P143A are 0.0676 ± 0.0022, 0.0772 ± 0.0027 and 0.384 ± 0.03.
Turning to K104R C134I, the sfGFP reporter fluorescence in data set [1] turned out to be 0.0715 ± 0.00073; in data set [2] (ligand: 1 µM Pb), 0.152 ± 0.007; in data set [2] (ligand: 30 µM Zn), 1.14 ± 0.072.
As to N83T D131S D135A, the sfGFP reporter fluorescence in data set [1] stood at 0.0613 ± 0.0024; in data set [2] (ligand: 1 µM Pb), 0.0871 ± 0.0043; in data set [2] (ligand: 30 µM Zn) it was 0.193 ± 0.0075.
In the same order, the values of N83T D131S D135R are 0.064 ± 0.0013, 0.0955 ± 0.0087 and 0.21 ± 0.0094.
